The record followed here is patent publication CN111303279A (INST PATHOGEN BIOLOGY CAMS, dated 2020).

First the molecules themselves.
B1: 单域抗体5F8 (VHH)
VHH: QVQLVESGGGLVQPGGSLRLSCAASGRQAVVFGWFRQAPGKGLEAVAAIHVPAKNRYYADSVKGRFTISRDNSKNTLYLQMNSLRAEDTAVYYCAAHYEFNDFVWQGYSSDYWGQGTQVTVSS
B2: 单域抗体4D8 (VHH)
VHH: QVQLVESGGGLVQPGGSLRLSCAASGNIDSTRYHGWFRQAPGKGLEAVAAIKGVWPEDYYADSVKGRFTISRDNSKNTLYLQMNSLRAEDTAVYYCAADQYEWWVPGEVGPYLYWGQGTQVTVSS
B3: 单域抗体2F2 (VHH)
VHH: QVQLVESGGGLVQPGGSLRLSCAASGLAQSKWAYGWFRQAPGKGLEAVAAIDVATGPWYYADSVKGRFTISRDNSKNTLYLQMNSLRAEDTAVYYCAAHHIPTKHPAFPDFRDYWGQGTQVTVSS
B4: 单域抗体3F11 (VHH)
VHH: QVQLVESGGGLVQPGGSLRLSCAASGGNAAERMAGWFRQAPGKGLEAVAAIYYAKFGPYYADSVKGRFTISRDNSKNTLYLQMNSLRAEDTAVYYCAAEAFVQSPYSGSHTTKYWGQGTQVTVSS
B5: 单域抗体1E2 (VHH)
VHH: QVQLVESGGGLVQPGGSLRLSCAASGADAFVIIGGWFRQAPGKGLEAVAAIAWTDQHEYYADSVKGRFTISRDNSKNTLYLQMNSLRAEDTAVYYCAAQDSAYIKSKGSRAYEYWGQGTQVTVSS

The first experiment deals with T1, SARS-CoV-2刺突蛋白RBD区重组蛋白 (SARS-CoV-2, UniProt P0DTC2 319-541). The experiment can be described thus: SPR, BIAcore T-200; range told of the group, this end tied to 5F8 by table 1. (In SPR one partner is held on a chip, and binding of the other changes the refractive index at the surface.)
Regarding B1, the dissociation constant Kd – broadly, a measure of binding affinity in units of concentration – was 0.71 nM.

Another experiment deals with T1, SARS-CoV-2刺突蛋白RBD区重组蛋白. The experiment can be described thus: SPR, BIAcore T-200; range told of the group, this end tied to 4D8 by table 1.
Molecule B2 returned a Kd of 33.9 nM.

The next experiment addresses T1, SARS-CoV-2刺突蛋白RBD区重组蛋白. Description: SPR, BIAcore T-200, RBD amine-coupled on CM5 chip, VHH in flow.
Consider B2, for which the dissociation constant Kd came to 34 nM; the koff (commonly the first-order rate constant of dissociation) amounted to 0.00613 s⁻¹; the kon (in general, a measure of how fast the partners come together) is 180000 M⁻¹ s⁻¹.
With B3, the affinity, expressed as Kd, was 0.846 nM; the koff was determined as 0.000313 s⁻¹; the kon is 370000 M⁻¹ s⁻¹.
For B4, in that order: 3.15 nM, 0.00675 s⁻¹ and 2.14e+06 M⁻¹ s⁻¹.
The like results for B1 were, in that order, 0.716 nM, 0.000211 s⁻¹ and 295000 M⁻¹ s⁻¹.
Consider B5, for which the affinity, expressed as Kd, was 21.1 nM; the dissociation rate constant (koff) came out at 0.00518 s⁻¹; the kon worked out at 245000 M⁻¹ s⁻¹.

Another experiment has as its target SARS-CoV-2病毒的包膜刺突糖蛋白(即S蛋白) (SARS-CoV-2, UniProt P0DTC2 14-1273). Description: cell-based or functional assay.
As to B2, the “抑制SARS-CoV-2假型病毒感染 IC50 (luciferase, Calu-3细胞)” value (shortened to “抑制SARS-CoV-2假型病毒感染 IC50”) came to 0.247 µg/mL.
On to B3, for which the “抑制SARS-CoV-2假型病毒感染 IC50” value was 0.0235 µg/mL.
The same measure, in the same setting: next, B4: 0.0038 µg/mL; B1: 0.00338 µg/mL.
In the case of B5, the “抑制SARS-CoV-2假型病毒感染 IC50” value was 0.31 µg/mL.
